{"source": "patent US11959098B2", "about": "“Methods and culture media for culturing pluripotent stem cells” (Technion Research & Development Foundation Limited, priority 2010, dated 2024)", "molecules": {"B1": {"name": "Noggin: Noggin (10 ngr/ml) added to induce neural differentiation (protein, UniProt Q13253 28-232, looked up)", "Noggin": "QHYLHIRPAPSDNLPLVDLIEHPDPIFDPKEKDLNETLLRSLLGGHYDPGFMATSPPEDRPGGGGGAAGGAEDLAELDQLLRQRPSGAMPSEIKGLEFSEGLAQGKKQRLSKKLRRKLQMWLWSQTFCPVLYAWNDLGSRFWPRYVKVGSCFSKRSCSVPEGMVCKPSKSVHLTVLRWRCQRRGGQRCGWIPIQYPIISECKCSC"}, "B2": {"name": "activin A: activin A at concentration of 10 ng/ml added for endoderm differentiation (protein, UniProt P08476 311-426, looked up)", "Inhibin beta A chain": "GLECDGKVNICCKKQFFVSFKDIGWNDWIIAPSGYHANYCEGECPSHIAGTSGSSLSFHSTVINHYRMRGHSPFANLKSCCVPTKLRPMSMLYYDDGQNIIKKDIQNMIVEECGCS", "modifications": "Inhibin beta A chain"}}, "key": {"[1]": {"tested_on": "hESCs cultured in suspension", "test": "Neural differentiation of pluripotent stem cells cultured in suspension", "type": "cell-based, human", "conditions": "hESC single cells; retinoic acid (10^−3 M) or Noggin (10 ngr/ml); three weeks after induction", "procedure": "Neural differentiation—To induce neural differentiation single cells cultured in suspension were transferred to a medium without bFGF and the IL6RIL6 chimera. Either retinoic acid (10^−3 M) or Noggin (10 ngr/ml) were added for three to seven days. Three weeks after differentiation induction, the cells were plated for staining with fibronectin. The cells were stained for O4 (oligodendrocytes marker), GFAP (Glial fibrillary acidic protein), nestin and β-tubulin.\nDifferentiation into neuronal cells—Cells from the four tested cell lines (I3, I4, I6 and H9.2) were cultured in suspension with cell clump for at least 25 passages. Then, the factors were removed from the culture medium and 5×10^−5 M Retinoic acid was added for 21 Days. The cells were then transferred to fibronectin coated plates and cultured for additional 5 days before harvesting the cells for analysis.\nHuman ESCs which are cultured in suspension as single cells are capable of differentiating into the neuronal cell linage—To induce neural differentiation, hESCs which are cultured in suspension as single cells were transferred to a neuronal differentiating medium (without bFGF and the IL6RIL6 chimera) which included either retinoic acid (10^−3 M) or Noggin (10 ngr/ml) as described under “General Materials and Experimental Methods” hereinabove. […]"}, "[2]": {"tested_on": "C2 cell line (iPS cell line derived from foreskin fibroblast)", "test": "Endodermal differentiation of pluripotent stem cells cultured in suspension", "type": "cell-based, human", "procedure": "Differentiation into endodermal cells—Cells cultured in suspension with cell clumps from C2 cell line (iPS cell line derived from foreskin fibroblast) were cultured in suspension for at least 10 passages. Then the factors were removed from the culture medium and the cells were exposed to 10 ng/ml Activin for 48 hours, in medium containing cAMP increasers such as foreskulin, 8-bromocAMP, GABA, IBMX and DBC. Ten days later the cells were analyzed for endodermal markers. […] As shown in FIGS. 10A-10B the differentiated cells express PDX1, a transcription factor indicating differentiation into endoderm lineage, mainly into β-cells.\nC2 cells were cultured for more than 10 passages as single cells in suspension in the pCM100F culture medium. For endoderm differentiation, the bFGF and the IL6RIL6 chimera were removed from the culture medium and activin A at concentration of 10 ng/ml was added for 48 hours in a suspension culture. 10 days after exposure to activin A, the cells were plated on Matrigel™ or HFF (human foreskin fibroblast) matrix, or were cultured in a 3-dimensional culture system (in suspension) and were stained to PDX1."}, "[3]": {"conditions": "C2 clumps, 10 ng/ml for 48 hours with cAMP increasers, ten days later"}}, "note": "Entries after “also recorded” stand apart in the source; their conditions may differ.", "data": [{"molecule": "B1", "values": [{"measurement": "differentiation into neuronal progenitor cells (GFAP, O4, β-Tubulin, Nestin staining)", "setting": "[1]", "result": "differentiated into neuronal progenitor cells"}]}, {"molecule": "B2", "values": [{"measurement": "PDX1 expression (immunofluorescence)", "setting": "[2]; [3]", "result": "express PDX1"}, {"measurement": "Sox17 expression (quantitative RT-PCR) versus non-treated controls", "setting": "[2]; [3]", "result": "significant increase in Sox17 expression"}, {"measurement": "SOX 17 gene expression (real time PCR)", "setting": "[2]; C2 single cells, 10 ng/ml for 48 hours in suspension", "result": "an increase could be observed during differentiation from day 2 to 10"}, {"measurement": "PDX1 expression (immunostaining)", "setting": "[2]; C2 single cells, 10 ng/ml for 48 hours, 10 days after exposure", "result": "all cells which are stained by DAPI (nuclear staining) are also stained with PDX1; also recorded: expression of PDX1 in the cells"}]}]}
